Test results taken from the nanobody polyreactivity screen of Harvey et al. (2022).

Assay: yeast display, Sf9 membrane polyspecificity reagent, FACS + sequencing; frameworks hold sequencing errors
Method in brief: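 Nanobodies came from a synthetic yeast display library in Saccharomyces cerevisiae BJ5465, induced with galactose for 36–48 hours and stained for 1 hour at 4 °C with 10% biotinylated, detergent-solubilized Sf9 membrane reagent. Cells were enriched on streptavidin microbeads and then FACS-sorted, with low and high (top ~1%) gates set on anti-HA fluorescence for expression and streptavidin fluorescence for reagent binding. Each polyreactivity label reflects the gate a clone came from. Genes were amplified by colony PCR, sequenced by MiSeq 2 × 250 and filtered by CDR length.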

Sequence	polyreactivity (PSR sort gate)
QVQLVESGGRLVQAGGSHRLRCAASGFIFKHNAMGWYRQAPGQEREFVARISWSGGSTRYADSVKGRFTISRDNAKNTVYLQMNSLKPEDTAVYYCAADQLGNDMDYWGQGTQVTVSS	low polyreactivity
QVQLVESGGGLVQAGGSLRLSCAASGFIFRRYAMGWYRQAPGKERELVAAIRWDDGNTYYADSVKGRFTISRDNAKNTVYLQMNSLKPEDTAVYYCNADKWSSTDDWLYDYWGQGTQVTVSS	low polyreactivity
QVQLVESGGGLVQAGGSLRLSCAASGRTFGEYAMGWYRQAPGKERELVADITNGSRTYYADSVKGRFTISRDNAKNTVYLQMNSLKPEDTAVYYCAADWWKEVDYWGQGTQVTVSS	low polyreactivity
QVQLVESGGGLVQAGGSLRLSCAASGINFVGYAMGWYRQAPGKERELVAAISTSSRTYYADSVKGRFTISRDNAKITVYLHMNSLKPDDTAVYYCNARGTRWYYRHDYWGQGTQVTVSS	high polyreactivity
QVQLVESGGGLVQAGGSLRLSCAASGRTFLGNAMGWYRQAPGKERELVAAIRYSGGRTYYADSVKGRFTISRDNAKNTVYLQMNSLKPEDTAVYYCAKDRRYYKAYDYWGQGTQVTVSS	low polyreactivity
QVQLVESGGGLVQAGGSLRLSCAASGFIFSKYAMGWYRQAPGKERELVAAITRSGGRTYYADSVKGRFTISRDNAKNTVYLQMNSLKPEDSAVYYCAASWLYFGRDYWGQGTQVPVSS	high polyreactivity
QVQLVESGGGLVQAGGSLRLSCAASGSIFTGNAMGWYREAPGKERELVAAITNGGITNYADSVKRRFTISRDNAMNTVYLQMNSLKPEDTAVYYCAADYVDFYSFRRFDYWGQGTQVTVSS	low polyreactivity
QVQLVESGGGLVQAGGSLRLSCAAYGFILDFYTMGWYRQAPGKERELVAAITNGGSTYYADSVKGRFTISRDNAKNTVYLQMNSLKPEDTAVYYCAAYYRSRHNGYDSWGQGTQVTVSS	low polyreactivity
QVQLVESGGGLVQAGGSLRLSCAASGSTFTLYAMGWYRQAPGKERELVATITGSGGSTNYADSVKGRFTISRDNAKNTVYLQMNSLKPEDTAVYYCAADYAVYSFTEFNYWGQGSQVTVSS	high polyreactivity
QVQLLESGGGLGQAGGRLRLICAASGRTFTPYAMGWYRPAPGKERELVAAIDTSGGSTYADSVKGRFTISRDNAKNTVYLQMNCQKPEDTAVYYCATRGFYSWDYWYLWEYDYWGQGTQVTVSS	low polyreactivity
QVQLVESGGGLVQAGGSLRLSCAASGITFDYYAMGWYRQAPGKERELVAAISWGGGSTYYADSVKGRFTISRDNAKNTVYLQMNSLKQEDTAVYYCAAVIVYSPSSYVRPGDYWGQGTQVTVSS	low polyreactivity
QVQLQESGGGLVQAGGSLLSCAASGTISYYREMGCYRQAPGKERELVAGIGVGTITYYADSVKGRFTISRDNAKNTVYLQLNSLKPEDNAVYYCAAHIDGNDSHAYWGQGTQVTVSS	low polyreactivity
QVQLVESGGGLVQAGGSLRLSCAASGITFYVYAMGSYTQAPGKEREFVAAISTRDGTTYADSEKGRFTISRDNAKNPFYLEMNSLKPVDTAVDYCAAAYYYDGQQGDFDYWGQGTQVTVSS	low polyreactivity
QVQLVESGGDLVQAGGSLRLSCAASGSIFCYYVMGWYRQAPGKERELVAAITVSGAGTYNADSVKGRFTISRDNAKNTVYLQMNSLKPEDTAVYYCAARWLGHFYPFFLQGLSGFDYWGQGTQVTVSS	low polyreactivity
QVQLVESGGGLVQAGGSLRLSCAASGITIYYNAMGWYRQAPGKARELVAAITQSGGSTFYADSVKGRFTISRDNAKNTVYLQMNSLKPEDTAVYYWGQGTQVTVSS	low polyreactivity
QDQRVESGGGLVQAGGSLRLSCAASVRTVNFNVMGWYSQARGKERELVAAISKSTGSTFYADSVKGRFTMSRDNAKNTGYLQKNSLKPEDTAVYYCIAVRCYGSGRGYGYCGQGTQVTVSS	high polyreactivity

Sequence	polyreactivity (PSR sort gate)
QVQLVESGGGLVQARGSLRLSCAASGFTFRSYTMGWYRQAHGKERELVAAITSRGTSTYYADSVKGRFTISLDNAKNTVYLQMNSLKPEDTAVYYCAAPIYNGYASWQVYYWGQGTQVTVSS	high polyreactivity
QVQLVESGGGLVQAGGSLRLSCAASGRIFGSYAMGWYRQAPGKERELVAAINWRGGSTFYADSVKGRFTISRDNAKNTVYLQMNSLKPEDTAVYYCARRGYRQSGDYWGQGTEVTVSS	low polyreactivity
QVQLVESGGGLVQAGGSLRISCAASGSTFPYNAMGWYRQAPGKERELVATIDRGSTTNYADSVKGRFTISRDNAKNTVYLQMNSLKPEDTAVYYCAADANGYYNYDYWGQGTQVTVSS	low polyreactivity
QVQLVESGGGLVQAGGSLRLSCAASGRTFSYYAMGWYRQAPGKEREFVAAISSTGTSTYYADSVKGRFTISRDTAKNTVYLQKNSLKPEDTAVYYCNARLATYRLHSKFYYWGQGTQVTVSS	high polyreactivity
QVQLVESGGGLVQAGGSLRLSCAASGRTFVYNAMGWYRQAPGKERELVAGITNGGSTNYADSVKGRFTISRDNAKNTVYLQMNSLKPEDTAVYYCAADSRVYPYYFGDFGYWGQGTQVTVSS	low polyreactivity
QVQLVETGGGLVQAGGSLRLSSAASGSILEGYAMGWYRQAPGKERELVPAISRSGGSTYYADSVKGRFTISRDNAKNTVYLQMKSLKPEDTAVYYCAARYRLDGTHLTGYAYYSWGQGTQGTVSS	high polyreactivity
QVQLVESGGGLVQAGGSLRLSCAASGYTLRPNGMGWYRPAPGKERELVAAISSGGSTYYADSVKGRFTISRDNAKNTVYLQMNSLKPEDTAVYYCAAEYWYDYWGQGTQVTVSS	low polyreactivity
QVQLVESGGGFVQAGGSLRLSCAASGIIFDYNAMGWYRQAHGKERELVAAISGRSGRTYYADSVKGRFTISRDNAKNTVYLQMNSLKPEDTAVYYCAARWYAGGNYWGQGTQVTVSS	high polyreactivity
QVQLVESGGGLVQAGGSLRLSCAASGGIFGYYVMGRYRQAPGKERELVAVITRGGSTNYADSVKGRFTISRDNAKNTVYLQMNSLKPEDTAVYYCAKDVPYRRVRSEYWGQGTQVTVSS	low polyreactivity
QVQLVESGGGLVQAGGSLRLSCAASGFIFAYNAMGWYRQAPGKERELDAAISRSGGSTRYADSVKGRFTISRDNAKNTVYLQMNSLKPEDTAVYYCNVSRYGYGVGRGLYIYDYWGQGTQVTVSS	high polyreactivity
QVQLVESGGGLVQAGGSLRLSCAASGSIFKPYAMAWYRQAPGKERELVAAINRGGTSTYYADSVKGRFTISRDNAKNTVYLQMNSLKPEDTAVYYCAKTYTEYSVTRSGARMDYWGQGAQVTVSS	low polyreactivity
QVQLVDSGGGLVQAGGSLPLSCAASGFSFVYYAMAWYREAPGKEREFVAAITERGGSTDYADSVKGRFTISRDNAKNTVYLQMNSLKPEDTAVYYCASRNAYVYGMDYWGQGTQVTVSS	low polyreactivity
QVQLVESGGGLVQAGGSLRLSCAASGLTFIHYAMGWYRQAPGKEREFVAAISTNSGSTYYADSVKGRFTISRDNAKNTVYLQMNSLKPEDTAVYYCAARGLRWRIDGEYWGQGTQVTVSS	high polyreactivity
QVQLVESGGGLVQAGGSLRLSCAASGFIIYLYAMGWSRQAPGKERELLAAISRGGGTTYYADSVKGRFTISRDYAQNTVYLQMNSLKPEDTAVYYCAAETEYYSYRFDYWGQGTQVSVSS	high polyreactivity
QVQLVESGGGLVQAGGSLRLSCAASGLTFGRYAMGWYRQAPGKERELVAAITASGGITYYADSVKGRFTISRDNAKNTVYLQMNSLKPEDTAVYYCAADGEVKYDYWGQGTQVTVSS	low polyreactivity
QVQLVESGGGLVQAGGSLRLSCAASGRTLYYKAMGWYRQAPGKERELVAAISRSGGSTYYADSVKGRFTISRDNAKNTVYLQMNSLKPEDTAVYYCAVLPSYTSWESSDYWGQGTQVTVSS	high polyreactivity
